In test [1] the target is H7N9病毒的HA蛋白(购自ACROBiosystems) (H7N9 influenza virus). Put plainly: ELISA, HA coated at 100 ng/well, negative control, anti-human IgG-HRP.
Test [2] addresses H7N9病毒 A/Anhui/1/2013 (H7N9 influenza virus A/Anhui/1/2013). Put plainly: cell-based or functional assay.
The target of test [3] is H7N9病毒的HA蛋白(购自ACROBiosystems) (H7N9 influenza virus).
For test [4] the target is unchanged. The source holds these as a separate data set.

“And” between values parts separate entries of the source, which are not always exact repeats. Equal entries are not always repeated. Where two headings read alike, the source gives them in different places.

From patent CN111434682A come the findings set out here.

For 阴性对照 (negative control of the ELISA), the 450nm absorbance in test [1] is 0.0675 OD450 and 0.0554 OD450.

B1: 抗H7N9全人源单克隆抗体7T33 (antibody, V domains shown)
VH: QVQLVESGAEVKKPGASVKVSCKASGTIFYSTEINWVRQATGQGLEWMGWMNPESGEYGFAQKFQGRVTMTRNTSITTAYMELSSLTSEDTAVYYCAYGNAECSAGGSCTNWFGEPWGQGTLVTVSS
VL: SSELTQDPAVSVALGQTVRITCQGDRLRSTTASWYQQKPGQAPVLVIYGKNNRPSGIPDRFSGSSSGNTASLTITGAQAEDEADYYCNSREYSGTHLVFGGGTKLTVLV
For orientation: Kd means the concentration at which binding is half-saturated. Higher therefore signals weaker binding. In test [2], B1 came in with an IC50, micro-neutralisation ELISA on MDCK cells infected with H7N9 virus of 12.8 mg/L. Moreover, the 450nm absorbance in test [3] was 1.53 OD450 and 1.86 OD450 and 1.8 OD450. Also, the equilibrium dissociation constant (Kd) in test [4] was determined as 5.43 nM.
